Test results reported in the nanobody polyreactivity screen of Harvey et al. (2022).

Test: yeast display, Sf9 membrane polyspecificity reagent, FACS + sequencing; frameworks hold sequencing errors
Outline: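 Synthetic nanobody libraries on Saccharomyces cerevisiae BJ5465 were galactose-induced for 36–48 hours, stained 1 hour at 4 °C with 10% biotinylated, detergent-solubilized Sf9 membrane reagent and enriched on streptavidin microbeads. FACS then separated cells into low and high (top ~1%) gates by anti-HA (expression) and streptavidin (reagent binding) fluorescence. Genes were colony-PCR amplified, MiSeq 2 × 250 sequenced and CDR-length filtered. A clone's polyreactivity label is that of its gate of origin.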

Sequence | polyreactivity (PSR sort gate)
QVQLVESGGGLVQAGGSLRLSCAASGRTFYRNAMGWSRQAPGKERELVAAISSTGSTYYAESVKGRFTSSRDNAKNTVYLQMNSLKPEDTAVYYCARGVHGIFGYLGQGTQVTVSS | low polyreactivity
QVQLVESGGGLVQAGGSLRLSCAASGRTFYRNAMGWYRQAPGKERELVAAISSTGSTYSADSVKGRFTISRDNAKNTVYLQMNSLKPEDTAVYYCARGVHGIFGYWGQGTQVTVSS | low polyreactivity
QVQLVESGGGLVQAGGSLRLSCAASGRTFYRNAMGWYRQAPGKERELVARISRNGGTTYYADSVKGRFTISRDNAKNTVYLQMNSLKPEDTAVYYCAAPIYDGARGDYWGQGTQVTVSS | high polyreactivity
QVQLVESGGGLVQAGGSLRLSCAASGRTFYRNAMGWYRQAPGKERELVGAISQSGGSTYYADSVKGRFKISRDNAKNTVYLQMNCLIPEDTAVYSCAAGKSRRVGMDYWGQGTQVTVSS | high polyreactivity
QVQLVESGGGLVQAGGSLRLSCAASGRTFYRNAMGWYRQAPGKETELVAAITWSGVSTYYADSVKGRFTISRDNAKNTVYIQMNSLKPEDTAVYYCSRARVLRNGHYFQLRNYDYWGQGPQVTVSS | high polyreactivity
QVQLVESGGGLVQAGGSLRLSCAASGRTFYRNAMGWYRQARGKERELVAAISSRGGSTYYADSVKGRFTISRDNAKNTVYLQMNSLKPEDTAVYYCAARYLYLWADYEYGYWGQGTQVTVSS | high polyreactivity
QVQLVESGGGLVQAGGSLRLSCAASGRTFYRYAMGWYRQAPGKERELVAAISGSGGRTYYADSVKGRFTISRDNAKNTVYFQMNSLKPEDTAVYYCNAYPHAYTGSTREGDYWGQGTQVTVSS | high polyreactivity
QVQLVESGGGLVQAGGSLRLSCAASGRTFYRYAMGWYRQAPGKERELVAAITTGGGSTYYADSVKGRFTISRDNAKNTVYLQMNSLKPEETAVYYCNVYSSYTRRTLGDYWGQGTQVTVSS | high polyreactivity
QVQLVESGGGLVQAGGSLRLSCAASGRTFYRYAMGWYRQAPGKERELVAAITWSGGSTYYADSVKGRFTTSRDNAKNTVYFQMNSLKPEDTAVYYCARRLYPYRPTAYDYWGQGTQVTVSS | low polyreactivity
QVQLVESGGGLVQAGGSLRLSCAASGRTFYRYAMGWYRQAPGKERELVAGITSGGITYYADSVKGRFTISRDNAKNTVYLQMNSLKPEDTAVYYCAASYAFFSYRAWYTSGNEYWGQGTQVTVSS | high polyreactivity
QVQLVESGGGLVQAGGSLRLSCAASGRTFYRYAMGWYRQAPGKERELVARITNRGGITYYADSVKGRFTISRDNAKNTVYLQMNSLKPEDTAVYYCAADPIGYTWAGTHGDYYNEHDYWGQGTQVTVSS | low polyreactivity
QVQLVESGGGLVQAGGSLRLSCAASGRTFYRYAMGWYRQAPGKERELVAVISGRGGGTYYADSVKGRFTISRDNAKNTVYLQMNSLKPEDTAVYYCAKEYWGVTPTYYYWGQGTQVTVSS | high polyreactivity
QVQLVESGGGLVQAGGSLRLSCAASGRTFYRYTMGWYRQAPGKERELVAAIDRRGGSTYYADSVKGRFTISRDNAKNTVYLQMNSLKPEDTAVYYCNAVTHYSFDYWGQGTQVTVSS | high polyreactivity
QVQLVESGGGLVQAGGSLRLSCAASGRTFYSKAMGWYRQAPGKERELVAAISSSGSSTSYADSVKGRFTMSRDNAKNTVYLQMNSLKPEDTAVYYCAARTKRRANRDYWGQGTQVTVSS | high polyreactivity
QVQLVESGGGLVQAGGSLRLSCAASGRTFYSNAKGWSRQAPGKERELVAGISKRGTITYYADSVKGRFTISRDNAKNTVYLQMNSLKPEDTAVYYCAAKPPSYIVKGDGRDDYWGQGTQVTVSS | high polyreactivity
QVQLVESGGGLVQAGGSLRLSCAASGRTFYSNAMGWYRQAPGKERELVAAIRRSRGRTYYADSVKGRFTISRDIAKNTVYLQMNSLKPEDTAVYYCATARYRAEMGYWGQGTQVTVSS | high polyreactivity
QVQLVESGGGLVQAGGSLRLSCAASGRTFYSNAMGWYRQAPGKERELVAAISSSGGRTFYADSVKGRFTISRDNAKNTVYLQMNSLKPEDTAVYYCAAVPGYPRDSLYNYWGQGTQVTVSS | high polyreactivity
QVQLVESGGGLVQAGGSLRLSCAASGRTFYSNAMGWYRQAPGKERELVAAISYNDGSTYYADSVKGRFTISRDNAKNTVYLQMNSLKPEDTAVYYCNADVGAWAWYTRYDYWGQGTQVTVSS | low polyreactivity
QVQLVESGGGLVQAGGSLRLSCAASGRTFYSNTIGWYRQAPGNESELVAAINRGGSTYYADSVKGRFTISRDNAKNTVYFQMNSLKPEDTAVYYCAVGYAHSSNRRYYYKKTHGYWGQGTQVTVSS | low polyreactivity
QVQLVESGGGLVQAGGSLRLSCAASGRTFYSYAMGWYIQAPGKERELVATINRGSGTNYADSVKGRFTISRDNAKNSVYLQMNSLKPEDSAVYSCAVDRRVLWYHMDYWGQGTKVTVSS | high polyreactivity
QVQLVESGGGLVQAGGSLRLSCAASGRTFYSYAMGWYRQAPGKERELVAAISAGGSTYYADSVKGRFTISRDNAKNTVYLQMNSLKPEDTAVYYCAATYSYYYARYHYWGQGTQVTVSS | high polyreactivity
QVQLVESGGGLVQAGGSLRLSCAASGRTFYSYAMGWYRQAPGKERELVAGITWSGTSTYYADSVKGRFTISRDNAKNTVYLQMNSLKPEDTAVYYCAAATLYSRYDYWGQGTQVTVSS | low polyreactivity

Sequence | polyreactivity (PSR sort gate)
QVQLVESGGGLVQAGGSLRLSCAASGRTFYSYAMGWYRQAPGKERELVASISYGGGTNYADSVKGRFTISRDNAKNTVYLQMNSLKPEDTAVYYCAAKYWFFYPYDYWGQGTQVTVSS | low polyreactivity
QVQLVESGGGLVQAGGSLRLSCAASGRTFYSYTMGWYRPAPGKERELVAAISSRGGSTYYADSVKGRFTISRDNAKNTVYLQMNSLKPEDTAVYYCNAARYGRHLSTYDYWGQGTQVTVSS | high polyreactivity
QVQLVESGGGLVQAGGSLRLSCAASGRTFYTYAMGWYRQAPGKARELVAAISSSGSTYYADSVKGRFTISRDNAKNTVDLQMNSLKPEDTAGYYCNARTSRYRRGGDSWGQGTQVTVSS | high polyreactivity
QVQLVESGGGLVQAGGSLRLSCAASGRTFYTYVMGWYRQAPGKEREFVAAITYSGGSTYYADSVKGRFTISRDNAKNTVYLQMNSLKPEDTAVYYCNDEWTYSEWYGQYLEFDYWGQGTQVTVSS | high polyreactivity
QVQLVESGGGLVQAGGSLRLSCAASGRTFYVKSMGWYRQAPGKERELVAGISFSDGSTYYADSVKGRFTISRDNAKNTVYLQMNSLKPEDTAVYYCATVGAFDIYYGYGYWGQGTQVTVSS | low polyreactivity
QVQLVESGGGLVQAGGSLRLSCAASGRTFYVNAMGWSRHAPGIERELVAGISFSDGSTYYADSVKWRFTISRDNAKSTVYLQMNSLKPEDTAVYYCATVGALDIYYGYGYWGQGTQVTVSS | low polyreactivity
QVQLVESGGGLVQAGGSLRLSCAASGRTFYVSAMGWYRQAPGKERELVAAISWSGGSTYYADSVKGRFTISRDNAKNTVYLQMNSLKPEDTAVYYCAAQTYQRHVVAYDYWGQGTQVTVSS | low polyreactivity
QVQLVESGGGLVQAGGSLRLSCAASGRTFYVYAMGWYIQAPGKERELVAAISWGGGSTYYSDSVKGRFTISRDNAKNTVYLQMNSLKPEDTAVYFCAADKTRYRLGRDYWGQGTQVTVSS | low polyreactivity
QVQLVESGGGLVQAGGSLRLSCAASGRTFYVYAMGWYRQAPGKERELVAAISKSGGSTYYADSVKGRFTISRDNAKNTVYLQMNSLKPEDTAVYYCAARKSDPRTKLYNYWGQGTQVTVSS | high polyreactivity
QVQLVESGGGLVQAGGSLRLSCAASGRTFYVYTMGWYRQAPGKERELVAAITSGGSTNYADSVKGRFTISRDNAKNTVYLQMNSLKPEDTAVYYCAARVSTVFKRYYYWGQGTQVTVSS | high polyreactivity
QVQLVESGGGLVQAGGSLRLSCAASGRTFYWNPMGWYRQAPGKERELVAAITRNGGSTYYADSVKGRFTISRDNAKNTVYLQMNSLKPEDTAVYYCAARKRYGAGYDYWGQGTQVTVSS | high polyreactivity
QVQLVESGGGLVQAGGSLRLSCAASGRTFYWYTMGWYRQAPGKERELVAGIRSGGYTNYADSVKGRFTISRDNAKNTVYLQMNSLKPEDTAVYYCAAGGYSSAYGVSYGSYYYWGQGTQVTVSS | low polyreactivity
QVQLVESGGGLVQAGGSLRLSCAASGRTFYYAMGWYRQAPGKERELVASITWSGGITTYADSVKGRFTISRDNAKNTVYLQLNSLKPEDTAVYYCAAQVIKGRTYQLGDYWGQGTQVTVSS | high polyreactivity
QVQLVESGGGLVQAGGSLRLSCAASGRTFYYAMGWYRQAPGKERELVASITWSGGITTYADSVKGRFTISRDNAKNTVYLQMNSLKPEDTAVYSCAAQVIKGRTYQLGDYWGQGTQVTVSS | high polyreactivity
QVQLVESGGGLVQAGGSLRLSCAASGRTFYYNAMGSYRQAPGKEREFVAAITWSGTRTYYADSVKGRFTISRDNAKNTVYLQMNSLKPEDTAVYYCAARRGVQGTQYYYWGQGTQVTVSS | high polyreactivity
QVQLVESGGGLVQAGGSLRLSCAASGRTFYYNAMGWDRQAPGKESELVARITYRSGRTNYADSVKGRFTISRDNAKNTVYLQMNSLKPEDTAVYYCAAAWWCGAGRTRYEYWGQGTQVTVSS | high polyreactivity
QVQLVESGGGLVQAGGSLRLSCAASGRTFYYNAMGWYRQAPGKERELVAAISSGDTTKYADSVKGRFTISRDNAKNTVYLQMNSLKPEDTAVYYCAAVYQSYTYYLPKYWSFYQNDYWGLGTQVTVSS | low polyreactivity
QVQLVESGGGLVQAGGSLRLSCAASGRTFYYNGMGWYRQAPGKERELVAAITSGGTTSYADSVKGRFTISRDNAKNTVYLQMNSLKPEDTAVYYCAKRTVPRYEYWGQGTQVTVSS | low polyreactivity
QVQLVESGGGLVQAGGSLRLSCAASGRTFYYNTMGWYSQAPGKERELVATISRIGGSTYYADSVKGRFTISRDNAKNTVYLQMNSLKPEDTAVYYCAAYVAAYPTGYDYWGQGTQVTVSS | high polyreactivity
QVQLVESGGGLVQAGGSLRLSCAASGRTFYYNVMGWYRQAPGKESELVAAITNSGSTNYADSVKGRFTISRDNAKNTVYLQMNSLKPEDTAVYYCAARITYYGRKRGSRDYWGQGTQVTVSS | high polyreactivity
QVQLVESGGGLVQAGGSLRLSCAASGRTFYYYAMGWSRQAPGKERELVAAINRGGSTNYADSVKGRFTISRDNAKNTVYLQMNSQKPEATAVYDCNAAYYGPVRSKYVYWGQGTQVTVSS | high polyreactivity
